Laboratory results: paper PMC9908899, “TRIM40 is a pathogenic driver of inflammatory bowel disease subverting intestinal barrier integrity” (Nature Communications, 2023)

Molecular target: T1, ROCK1 kinase domain (residue 1-415) protein (human, UniProt Q13464 1-415)
T1 construct: ROCK1 kinase domain, residues 1-415, expressed in Sf9 cells; source: Spodoptera frugiperda cells (Sf9)
Assay: SPR; Biacore T200; ROCK1 kinase domain immobilised on CM5 chip by amine coupling (3400 RU); full-length TRIM40 injected at eight concentrations, 30 μl/min, HBS-EP+ buffer (10 mM HEPES, 150 mM NaCl, 3 mM EDTA, 0.05% P20), 25 °C
Conditions: both partners purified

T1 sequence (Q13464 1-415): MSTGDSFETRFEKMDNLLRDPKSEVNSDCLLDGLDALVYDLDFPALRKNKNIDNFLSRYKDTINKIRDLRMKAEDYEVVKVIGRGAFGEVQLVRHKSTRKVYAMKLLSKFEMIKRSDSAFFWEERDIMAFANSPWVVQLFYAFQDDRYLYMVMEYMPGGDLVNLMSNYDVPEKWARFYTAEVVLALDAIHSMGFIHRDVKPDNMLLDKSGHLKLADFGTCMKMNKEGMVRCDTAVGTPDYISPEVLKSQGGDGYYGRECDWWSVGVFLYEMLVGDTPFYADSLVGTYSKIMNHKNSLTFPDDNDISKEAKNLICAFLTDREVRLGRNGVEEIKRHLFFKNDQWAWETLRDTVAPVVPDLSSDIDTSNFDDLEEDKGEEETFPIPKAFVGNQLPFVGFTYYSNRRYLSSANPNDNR

B1: Full length TRIM40 protein (recombinant, for SPR) (natural protein, human, UniProt Q6P9F5 1-258, looked up)
chain: MIPLQKDNQEEGVCPICQESLKEAVSTNCGHLFCRVCLTQHVEKASASGVFCCPLCRKPCSEEVLGTGYICPNHQKRVCRFCEESRLLLCVECLVSPEHMSHHELTIENALSHYKERLNRRSRKLRKDIAELQRLKAQQEKKLQALQFQVDHGNHRLEAGPESQHQTREQLGALPQQWLGQLEHMPAEAARILDISRAVTQLRSLVIDLERTAKELDTNTLKNAGDLLNRSAPQKLEVIYPQLEKGVSELLLQPPQKL
notes: full length TRIM40 expressed in E. coli BL21 (DE3); source: Escherichia coli BL21 (DE3)
Kd: 2.25 µM
